Measurements as given in patent US20250270328A1 (BRIGHAM AND WOMEN S HOSPITAL, published 2025).

T1: human KLRB1 protein extracellular domain (ECD) (human, UniProt Q12918 67-225)
T1 construct: range 67-225; The ELISA and SPR text says only 'human KLRB1 ECD'; also called human KLRB1 ECD; CD161
T1 sequence (looked up): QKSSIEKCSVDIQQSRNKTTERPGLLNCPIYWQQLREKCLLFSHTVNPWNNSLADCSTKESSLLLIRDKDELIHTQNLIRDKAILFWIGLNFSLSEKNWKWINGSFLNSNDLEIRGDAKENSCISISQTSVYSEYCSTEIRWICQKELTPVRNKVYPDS

T2: human KLRB1 expressed on CHO-K1 cells (CHO-hum-KLRB1) (human, UniProt Q12918 1-225)
T2 sequence: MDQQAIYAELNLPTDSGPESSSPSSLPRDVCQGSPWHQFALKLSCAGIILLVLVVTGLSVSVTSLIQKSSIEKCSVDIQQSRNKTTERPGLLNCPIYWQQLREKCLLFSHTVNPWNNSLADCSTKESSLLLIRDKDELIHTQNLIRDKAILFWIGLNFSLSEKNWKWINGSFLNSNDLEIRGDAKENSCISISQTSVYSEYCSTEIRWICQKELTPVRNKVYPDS


Experiments:
[1] = molecular target: T1, human KLRB1 protein extracellular …; assay: SPR, human KLRB1 ECD; format not stated
Method: The chimeric antibody 10A3D6-hIgGlk (a mouse/human chimeric antibody with 10A3D6 variable regions and human IgG1-kappa constant regions), chimeric mutated variants (10A3D6C109S, 10A3D6C109F, and 10A3D6C109V), and humanized variants of 10A3D6 created by CDR grafting (Almagro et al. 2008) were assayed for binding against human KLRB1 extracellular domain (ECD) via surface plasma resonance (SPR).

[2] = molecular target: T2, human KLRB1 expressed on CHO-K1 cells …; assay: cell-based or functional assay

Binder	Kd [1]	koff [1]	kon [1]	ADCC target cell killing EC50 (flow cytometry, human NK cells) [2]
10A3D6-hIgG1k (mouse/human chimeric antibody with 10A3D6 variable regions and human IgG1-kappa constant regions) (antibody, also called 10A3D6-chimeric; 10A3D6-hIgGlk; copies: 2 + 2) heavy: not shown light: DIVMTQSHKFMSTSVGDRVNITCKASQDVGTAVVWYQQTPGQSPKVLIDWASIRHTGVPDRFTGSGSGTDFTLTISSVQSEDLADYFCQQYSTYLYTFGGGTKLEIKRTVAAPSVFIFPPSDEQLKSGTASVVCLLNNFYPREAKVQWKVDNALQSGNSQESVTEQDSKDSTYSLSSTLTLSKADYEKHKVYACEVTHQGLSSPVTKSFNRGEC	172 pM	0.000191 s⁻¹	1.11e+06 M⁻¹ s⁻¹	
10A3D6hum2.2-afuc (afucosylated 10A3D6hum2.2) (antibody, human IgG1, kappa, V domains shown, Fc N-glycan afucosylated (produced in FUT8 knockout cells). The amino-acid letters are unchanged from 10A3D6hum2.2.) VH: QVQLVQSGAEVKKPGASVKVSCKASGYSFTGYTMNWVRQAPGQNLEWIGLINPNTGGTYYNQKFKDRVTLTVDTSISTAYMELSRLRSDDTAVYYCARLGDNYRGYFDSWGQGTTVTVSS VL: DIQLTQSPSFLSASVGDRVTITCKASQDVGTAVVWYQQKPGKAPKLLIDWASIRHTGVPSRFSGSGSGTEFTLTISSLQPEDFADYFCQQYSTYLYTFGGGTKLEIKR				10 pM
10A3D6C109Chum2.5 (antibody, V domains shown, Humanized variant of 10A3D6 made by CDR grafting) VH: QVQLVQSGAEVKKPGASVKVSCKASGYSFTGYTMNWVRQAPGQNLEWIGLINPNTGGTYYNQKFKDRVTLTVDTSISTAYMELSRLRSDDTAVYYCARLGDNYRGYFDCWGQGTTVTVSS VL: EIVMTQSPATLSVSPGERATLSCKASQDVGTAVVWYQQKPGQAPRLLIDWASIRHTGIPARFSGSGSGTEFTLTISSLQSEDFAVYYCQQYSTYLYTFGGGTKVEIK	110 pM	9.49e-05 s⁻¹	861000 M⁻¹ s⁻¹	
10A3D6hum1.2 (antibody, V domains shown, Fluorescently labelled in the competition assay; dye and attachment site not stated., Humanized antibody; also called 103AD6hum1.2; copies: 2 + 2) VH: QVQLVQSGAEVKKPGASVKVSCKASGYSFTGYTMNWVRQAPGQGLEWMGLINPNTGGTYYNQKFKDRVTMTRDTSISTAYMELSRLRSDDTAVYYCARLGDNYRGYFDSWGQGTTVTVSS VL: DIQLTQSPSFLSASVGDRVTITCKASQDVGTAVVWYQQKPGKAPKLLIDWASIRHTGVPSRFSGSGSGTEFTLTISSLQPEDFADYFCQQYSTYLYTFGGGTKLEIKR	147 pM	0.000183 s⁻¹	1.24e+06 M⁻¹ s⁻¹	
10A3D6C109Chum5.5 (antibody, V domains shown, Humanized variant of 10A3D6 made by CDR grafting) VH: QVQLVQSGAEVKKPGASVKVSCKASGYSFTGYTMNWVRQAPGQNLEWMGLINPNTGGTYYNQKFKDRVTLTVDTSISTAYMELSRLRSDDTVVYYCARLGDNYRGYFDCWGQGTLVTVSS VL: EIVMTQSPATLSVSPGERATLSCKASQDVGTAVVWYQQKPGQAPRLLIDWASIRHTGIPARFSGSGSGTEFTLTISSLQSEDFAVYYCQQYSTYLYTFGGGTKVEIK	170 pM	0.000139 s⁻¹	816000 M⁻¹ s⁻¹	
10A3D6C109Chum4.2 (antibody, V domains shown, Humanized variant of 10A3D6 made by CDR grafting) VH: QVQLVQSGAEVKKPGASVKVSCKASGYSFTGYTMNWVRQAHGQNLEWIGLINPNTGGTYYNQKFKDRATLTVDTSISTAYMELSRLRSDDTAVYYCARLGDNYRGYFDCWGQGTTVTVSS VL: DIQLTQSPSFLSASVGDRVTITCKASQDVGTAVVWYQQKPGKAPKLLIDWASIRHTGVPSRFSGSGSGTEFTLTISSLQPEDFADYFCQQYSTYLYTFGGGTKLEIK	121 pM	0.000107 s⁻¹	880000 M⁻¹ s⁻¹	
10A3D6hum1.5 (antibody, V domains shown, Humanized antibody) VH: QVQLVQSGAEVKKPGASVKVSCKASGYSFTGYTMNWVRQAPGQGLEWMGLINPNTGGTYYNQKFKDRVTMTRDTSISTAYMELSRLRSDDTAVYYCARLGDNYRGYFDSWGQGTTVTVSS VL: EIVMTQSPATLSVSPGERATLSCKASQDVGTAVVWYQQKPGQAPRLLIDWASIRHTGIPARFSGSGSGTEFTLTISSLQSEDFAVYYCQQYSTYLYTFGGGTKVEIK	111 pM	0.000178 s⁻¹	1.6e+06 M⁻¹ s⁻¹	
10A3D6C109Chum4.4 (antibody, V domains shown, Humanized variant of 10A3D6 made by CDR grafting) VH: QVQLVQSGAEVKKPGASVKVSCKASGYSFTGYTMNWVRQAHGQNLEWIGLINPNTGGTYYNQKFKDRATLTVDTSISTAYMELSRLRSDDTAVYYCARLGDNYRGYFDCWGQGTTVTVSS VL: DIQLTQSPSFLSASVGDRVTITCKASQDVGTAVVWYQQTPGKAPKLLIDWASIRHTGVPDRFSGSGSGTEFTLTISSLQPEDFADYFCQQYSTYLYTFGGGTKLEIK	103 pM	9.88e-05 s⁻¹	963000 M⁻¹ s⁻¹	
10A3D6hum2.2 (antibody, human IgG1, kappa, V domains shown, copies: 2 + 2) VH: QVQLVQSGAEVKKPGASVKVSCKASGYSFTGYTMNWVRQAPGQNLEWIGLINPNTGGTYYNQKFKDRVTLTVDTSISTAYMELSRLRSDDTAVYYCARLGDNYRGYFDSWGQGTTVTVSS VL: DIQLTQSPSFLSASVGDRVTITCKASQDVGTAVVWYQQKPGKAPKLLIDWASIRHTGVPSRFSGSGSGTEFTLTISSLQPEDFADYFCQQYSTYLYTFGGGTKLEIKR	131 pM	0.000139 s⁻¹	1.07e+06 M⁻¹ s⁻¹	
10A3D6C109Chum5.3 (antibody, V domains shown, Humanized variant of 10A3D6 made by CDR grafting) VH: QVQLVQSGAEVKKPGASVKVSCKASGYSFTGYTMNWVRQAPGQNLEWMGLINPNTGGTYYNQKFKDRVTLTVDTSISTAYMELSRLRSDDTVVYYCARLGDNYRGYFDCWGQGTLVTVSS VL: DIQLTQSPSFLSASVGDRVTITCKASQDVGTAVVWYQQTPGKAPKLLIDWASIRHTGVPSRFSGSGSGTEFTLTISSLQPEDFADYFCQQYSTYLYTFGGGTKLEIK	155 pM	0.000134 s⁻¹	868000 M⁻¹ s⁻¹	
10A3D6C109Chum5.1 (antibody, V domains shown, Humanized variant of 10A3D6 made by CDR grafting) VH: QVQLVQSGAEVKKPGASVKVSCKASGYSFTGYTMNWVRQAPGQNLEWMGLINPNTGGTYYNQKFKDRVTLTVDTSISTAYMELSRLRSDDTVVYYCARLGDNYRGYFDCWGQGTLVTVSS VL: DIQLTQSPSFLSASVGDRVTITCKASQDVGTAVVWYQQKPGKAPKLLIYWASIRHTGVPSRFSGSGSGTEFTLTISSLQPEDFATYYCQQYSTYLYTFGGGTKLEIK	10200 pM	0.0196 s⁻¹	1.92e+06 M⁻¹ s⁻¹	
10A3D6C109Chum5.4 (antibody, V domains shown, Humanized variant of 10A3D6 made by CDR grafting) VH: QVQLVQSGAEVKKPGASVKVSCKASGYSFTGYTMNWVRQAPGQNLEWMGLINPNTGGTYYNQKFKDRVTLTVDTSISTAYMELSRLRSDDTVVYYCARLGDNYRGYFDCWGQGTLVTVSS VL: DIQLTQSPSFLSASVGDRVTITCKASQDVGTAVVWYQQTPGKAPKLLIDWASIRHTGVPDRFSGSGSGTEFTLTISSLQPEDFADYFCQQYSTYLYTFGGGTKLEIK	143 pM	0.000133 s⁻¹	930000 M⁻¹ s⁻¹	
10A3D6C109Chum1.5 (antibody, V domains shown, Humanized variant of 10A3D6 made by CDR grafting) VH: QVQLVQSGAEVKKPGASVKVSCKASGYSFTGYTMNWVRQAPGQGLEWMGLINPNTGGTYYNQKFKDRVTMTRDTSISTAYMELSRLRSDDTAVYYCARLGDNYRGYFDCWGQGTTVTVSS VL: EIVMTQSPATLSVSPGERATLSCKASQDVGTAVVWYQQKPGQAPRLLIDWASIRHTGIPARFSGSGSGTEFTLTISSLQSEDFAVYYCQQYSTYLYTFGGGTKVEIK	88.1 pM	9e-05 s⁻¹	1.02e+06 M⁻¹ s⁻¹	
10A3D6C109Chum4.3 (antibody, V domains shown, Humanized variant of 10A3D6 made by CDR grafting) VH: QVQLVQSGAEVKKPGASVKVSCKASGYSFTGYTMNWVRQAHGQNLEWIGLINPNTGGTYYNQKFKDRATLTVDTSISTAYMELSRLRSDDTAVYYCARLGDNYRGYFDCWGQGTTVTVSS VL: DIQLTQSPSFLSASVGDRVTITCKASQDVGTAVVWYQQTPGKAPKLLIDWASIRHTGVPSRFSGSGSGTEFTLTISSLQPEDFADYFCQQYSTYLYTFGGGTKLEIK	127 pM	0.000109 s⁻¹	851000 M⁻¹ s⁻¹	
10A3D6C109Chum4.5 (antibody, V domains shown, Humanized variant of 10A3D6 made by CDR grafting) VH: QVQLVQSGAEVKKPGASVKVSCKASGYSFTGYTMNWVRQAHGQNLEWIGLINPNTGGTYYNQKFKDRATLTVDTSISTAYMELSRLRSDDTAVYYCARLGDNYRGYFDCWGQGTTVTVSS VL: EIVMTQSPATLSVSPGERATLSCKASQDVGTAVVWYQQKPGQAPRLLIDWASIRHTGIPARFSGSGSGTEFTLTISSLQSEDFAVYYCQQYSTYLYTFGGGTKVEIK	127 pM	0.000107 s⁻¹	843000 M⁻¹ s⁻¹	
10A3D6C109Chum5.2 (antibody, V domains shown, Humanized variant of 10A3D6 made by CDR grafting) VH: QVQLVQSGAEVKKPGASVKVSCKASGYSFTGYTMNWVRQAPGQNLEWMGLINPNTGGTYYNQKFKDRVTLTVDTSISTAYMELSRLRSDDTVVYYCARLGDNYRGYFDCWGQGTLVTVSS VL: DIQLTQSPSFLSASVGDRVTITCKASQDVGTAVVWYQQKPGKAPKLLIDWASIRHTGVPSRFSGSGSGTEFTLTISSLQPEDFADYFCQQYSTYLYTFGGGTKLEIK	173 pM	0.000138 s⁻¹	800000 M⁻¹ s⁻¹	
10A3D6C109Chum3.5 (antibody, V domains shown, Humanized variant of 10A3D6 made by CDR grafting) VH: QVQLVQSGAEVKKPGASVKVSCKASGYSFTGYTMNWVRQAHGQNLEWIGLINPNTGGTYYNQKFKDRVTLTVDTSISTAYMELSRLRSDDTAVYYCARLGDNYRGYFDCWGQGTTVTVSS VL: EIVMTQSPATLSVSPGERATLSCKASQDVGTAVVWYQQKPGQAPRLLIDWASIRHTGIPARFSGSGSGTEFTLTISSLQSEDFAVYYCQQYSTYLYTFGGGTKVEIK	144 pM	0.000114 s⁻¹	792000 M⁻¹ s⁻¹	
